From US20090192100, “NOVEL USE OF SPIEGELMERS” (published 2009)

Target: T1, HMGA1b-His6 (Homo sapiens, S2G)
T1 chain: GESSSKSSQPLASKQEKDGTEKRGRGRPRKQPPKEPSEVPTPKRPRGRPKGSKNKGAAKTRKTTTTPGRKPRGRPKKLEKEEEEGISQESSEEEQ
Assay: streptavidin plate assay with nickel-HRP detection; poly(dGdC) competitor
Conditions: tags: C-terminal L-GSLNS-His6 (vector pHO2d), expressed in E. coli BL21; label: 5'-biotin on 34 nt strand
Experimental: The detection of HMGA1b-His6 bound to DNA is carried out with horseradish peroxidase modified with nickel (Nickel-HRP), which transforms a fluorogenic substrate. In this assay the spiegelmer displaces the recombinant HMGA1b from its natural binding partner. On account of the 1:1:1 stoichiometry of spiegelmer/rHMGA1b/dsDNA AT Hook, a direct prediction can be made regarding the affinity of the spiegelmers for HMGA1b. The principle of the assay is illustrated in FIG. 5.
To carry out this test spiegelmers in various concentrations and HMGA1b-His6 (0.36 μg/ml; ca. 30 nM) in a total volume of 100 μl are incubated for 10 minutes in a tapered floor plate at room temperature while shaking. The incubation solution also contains: 25 mM Tris/HCl, pH 7.0 (Ambion, Austin, Tex., USA), 140 mM KCl (Ambion, Austin, Tex., USA), 12 mM NaCl (Ambion, Austin, Tex., USA), 0.8 mM MgCl2 (Ambion, Austin, Tex., USA), 0.25 mg/ml BSA (Roche, Mannheim, Germany), 1 mM DTT (Invitrogen, Karlsruhe, Germany), 18-20 μg/ml poly(dGdC) (Sigma, Deisenhofen, Germany)), 0.05% Tween 20 (Roche, Mannheim, Germany). […]
100 μl of the fluorogenic HRP substrate (QuantaBlue, Pierce, Bonn, Germany) are then added to each well and the fluorescence is measured after 15 mins (ex: 340/em: 405 nm).

B1: dsDNA AT hook (dsDNA)
DNA 1: TCGAAAAAAGCAAAAAAAAAAAAAAAAAACTGGC
DNA 2: GCCAGTTTTTTTTTTTTTTTTTTGCTTTTTT
B1: binds.
